Assay results reported in paper PMC11067984.

Molecular target: CaV1.2 truncated at aa 1820, fused to YFP (CaV1.2^Δ1820-YFP) (UniProt P15381)

Distal C-terminal domain of CaV1.2 fused to Renilla luciferase (DCtermD-RLuc) (domain or fragment)
CDI fraction of CaV1.2^Δ1820 at 0 mV, without versus with DCtermD overexpressed: 0.03
